B1: Hairpin Ribozyme (parent)
chain: GUCCUCUUUCACGUGCGCGUGAAAGAGAGAAGUGAACCAGAGAAACACACGUUGUGGUAUAUUACCUGGUA

Variants of: B1
Test: self-cleavage, relative activity (ratio to wild type); higher = more cleavage; co-transcriptional

Row | Variant | self-cleavage
1 | C10U G69C | 0.235
2 | C3G U7C | 0.372
3 | U52C A71G | 1.08
4 | C10A C38A | 0.171
5 | G27C U55C | 0.186
6 | C46A U53A | 0.139
7 | G25C G32U | 0.0809
8 | C37A U63C | 0.131
9 | C12A G34U | 1.31
10 | G1C G56C | 0.202
11 | A35C G56C | 0.196
12 | C38G U67A | 0.224
13 | C16A G25U | 0.589
14 | U7C A22C | 0.178
15 | G42A A49C | 0.168
16 | G25A U70C | 0.588
17 | U5A G56U | 0.206
18 | U14C A43G | 0.147
19 | G56C A64U | 0.0562
20 | U9A A43C | 0.142
21 | A24C C48A | 0.172

Row | Variant | self-cleavage
22 | U20A A26G | 0.859
23 | C3A A64G | 0.54
24 | G17U G19A | 0.629
25 | G21A A39G | 0.306
26 | C10U G42C | 0.266
27 | U33A U55C | 0.149
28 | A43C C65A | 0.102
29 | A41U A47C | 0.955
30 | C37G G57C | 0.21
31 | A30C U60A | 0.12
32 | G21U U52G | 0.661
33 | A43C C50U | 0.13
34 | G25U A41C | 0.953
35 | G15C G32C | 0.0609
36 | C12U C38U | 0.523
37 | A11U G40U | 0.154
38 | G27U A45U | 0.0868
39 | U53A U62C | 0.231
40 | U14C U52A | 1.03
41 | A11C G69A | 0.381
42 | G13U A61G | 0.147

Row | Variant | self-cleavage
43 | G25C G68A | 0.192
44 | A24C U70G | 0.666
45 | G42U U70G | 0.105
46 | U2A G34U | 0.665
47 | U58C C65A | 1.11
48 | C4U U60G | 0.299
49 | C4G A41G | 0.219
50 | U7C A64G | 0.458
51 | G27A C66A | 0.204
52 | G21C U55A | 0.165
53 | A59C U70C | 0.151
54 | G29U A71G | 0.171
55 | C16G C66U | 0.422
56 | A11G G29U | 0.142
57 | A31U A71C | 0.227
58 | A61C U62A | 0.143
59 | G1U A35G | 0.0705
60 | C16U G40A | 0.276
61 | G19U A36U | 0.628
62 | C10A C12U | 0.452
63 | G21U G40C | 0.122

Row | Variant | self-cleavage
64 | U8G A61C | 0.189
65 | G19A C46A | 0.176
66 | U7G G34C | 1.39
67 | A30C U52G | 0.113
68 | G13A G54A | 0.443
69 | U33C U52G | 0.1
70 | C12A G17A | 0.746
71 | U33G C37A | 0.109
72 | G57A U67C | 0.123
73 | G19C A71C | 1.24
74 | U20A U70G | 0.651
75 | C3A C4U | 0.42
76 | A23G A45U | 0.143
77 | U55A G68A | 0.163
78 | U2C A64U | 0.107
79 | G42A U53A | 0.184
80 | C12A A23U | 0.671
81 | U33G C50A | 0.123
82 | U7G A44U | 0.139
83 | U20A A28C | 0.482

Source: the RNAGym collection of RNA variant scans (doi:10.7554/elife.80360)
